In this experiment the target is T1, calmodulin (Homo sapiens (Human), UniProt P0DP23 2-149).
T1 construct: also called calmodulin-agarose
Briefly: pull-down of purified protein on calmodulin-agarose; anti-EF-1α immunoblot. For orientation: Immunoblotting shows a protein as a band on a membrane.

B1: macrophage EF-1α (murine, from RAW 264.7 cells) (other)
chain: GKEKTHINIVVIGHVDSGKSTTTGHLIYKCGGIDKRTIEKFEKEAAEMGKGSFKYAWVLDKLKAERERGITIDISLWKFETSKYYVTIIDAPGHRDFIKNMITGTSQADCAVLIVAAGVGEFEAGISKNGQTREHALLAYTLGVKQLIVGVNKMDSTEPPYSQKRYEEIVKEVSTYIKKIGYNPDTVAFVPISGWNGDNMLEPSANMPWFKGWKVTRKDGSASGTTLLEALDCILPPTRPTDKPLRLPLQDVYKIGGIGTVPVGRVETGVLKPGMVVTFAPVNVTTEVKSVEMHHEALSEALPGDNVGFNVKNVSVKDVRRGNVAGDSKNDPPMEAAGFTAQVIILNHPGQISAGYAPVLDCHTAHIACKFAELKEKIDRRSGKKLEDGPKFLKSGDAAIVDMVPGKPMCVESFSDYPPLGRFAVRDMRQTVAVGVIKAVDKKAAGAGKVTKSAQKAQKAK
notes: also called host EF-1α; host-EF-1α
As for B1, the binding result is recorded as “binds”.

(Values after patent US20050095247A1 (UNIVERSITY OF BRITISH COLUMBIA, published 2005).)
